Test: soluble on expression in E. coli; label from the status in PepcDB or PDB records

Row | Sequence | soluble on expression in E. coli
1 | MIRLIFLDIDKTLIPGYEPDPAKPIIEELKDMGFEIIFNSSKTRAEQEYYRKELEVETPFISENGSAIFIPKGYFPFDVKGKEVGNYIVIELGIRVEKIREELKKLENIYGLKYYGNSTKEEIEKFTGMPPELVPLAMEREYSETIFEWSRDGWEEVLVEGGFKVTMGSRFYTVHGNSDKGKAAKILLDFYKRLGQIESYAVGDSYNDFPMFEVVDKVFIVGSLKHKKAQNVSSIIDVLEVIKHHHHHH | soluble
2 | MIRLSEQSPLGTGRHRKCYAHPEDAQRCIKIVYHRGDGGDKEIRRELKYYAHLGRRLKDWSGIPRYHGTVETDCGTGYVYDVIADFDGKPSITLTEFAEQCRYEEDIAQLRQLLKQLKRYLQDNRIVTMSLKPQNILCHRISESEVIPVVCDNIGESTLIPLATWSKWCCLRKQERLWKRFIAQPALAIALQKDLQPRESKTLALTSREALEHHHHHH | not soluble
3 | MIRQVIQRISNPEASIESLQERRFWLQCERAYTWQPIYQTCGRLMAVELLTVVTHPLNPSQRLPPDRYFTEITVSHRMEVVKEQIDLLAQKADFFIEHGLLASVNIDGPTLIALRQQPKILRQIERLPWLRFELVEHIRLPKDSTFASMCEFGPLWLDDFGTGMANFSALSEVRYDYIKIARELFVMLRQSPEGRTLFSQLLHLMNRYCRGVIVEGVETPEEWRDVQNSPAFAAQGWFLSRPAPIETLNTAVLAL | not soluble
4 | MIRTIERIITSTGFSLQHSDNGEITGLFYHCKLSSAYQPVFEAARNNIIGQEARIRADLNGNGEIQLSPWHIFALAPDDEQLIKLDRLCRTIHALNFLDNITNKQMKLFVSVQPRLLESVKDDHGSAFEQILDIIGIRTSRIVIEIPVEANRDWRLLKRVIMNYRAHGYLISVNYSGTNNDRISELGKLYPNVIRIDARDLLRRSVLDPLIVTAHNQGADVLVGNIETSYQLTDAIHAGADLLQGNFLARYSRKADNMLTPFSWQIPDERNGYRFDNESLQENQPYRSI | not soluble
5 | MIRVLLADDHALFRQGLKSLLEAEGDFRVVGEAKDGWEAMRHALETKPDVILMDIQMPGLDGVQATQAILKEWPQAKVIMLTMYRQDAYVFEAVKAGARGYLLKDVDARELVDAIRRVHAGEVLLDAELAGHIIQDFRAKKEASQPLHAELSEREVQILRLVAQGYTNQEIAAELQLSEKTVRNRLSEIFQKLHLNNRTQAALYAIREGLARPEE | soluble
6 | MISKYLVRDVMKKGVVEVTLDTKLSDVIKTMAKYDISSVVVSDGETFWGIITDTDVLKHYNDLDKTAEEIMTTNPITVSPEAPLEKAVEIMAEKGIHHLYVKSPCEDKIVGVLSSKDIIKLFSDLIE | soluble
7 | MISVFDIFKIGIGPSSSHTVGPMKAGKQFTDDLIARHILTDVTRVVVDVYGSLSLTGKGHHTDIAIIMGLAGNLPDTVDIDAIPSFIQDVNTHGRLLLANGQHEVEFPVDKCMNFHADNLSLHENGMRITALAGDKVLYSQTYYSIGGGFIVDEEHFGLTNSEPVNVPYPYKTAADLQRHCQETGLSLSGLMMQNELALHSKEALEQHFARVWEVMRSGIERGITTEGVLPGKLRVPRRAAALRRMLVSQDKTTTDPMAVVDWINMFALAVNEENAAGGRVVTAPTNGACGIVPAVLAYYDKFIREVNANSLARYMLVASAIGSLYKMNASISGAEVGCQGEVGVACSMAAAGLAELLGGSPAQVCIAAEIAMEHNLGLTCDPVAGQVQVPCIERNAIASVKAVNAARMAVRRTSEPRVCLDKVIETMYETGKDMNAKYRETSRGGLAMKIVTCD | not soluble
8 | MISVFDMFKVGIGPSSSHTVGPMKAGKQFIDDLIKRNQFEQTTEIHVDVYGSLSMTGRGHSTDIAIIMGLAGYLPHNVDIDMISGFIEKVKQTALLPINVGQKIVKFDFENNLIFHRTFLKLHENGMTITALDENRTELYRQTYYSIGGGFIVDEAHFGK | not soluble
9 | MITLFTFGPSFGLPDASPFVMKAELLLKMAGLPYQTARGNLRRAPKGKLPYLDDMGRIVADSTLIRWHIEKTYHVDFDEGLSPAERGTAWAVEKLMEDNLYWAVARVRWLERDNFERGPAQFFNVVPGPLRGLVKVLVRRKVRQMLWAQGLGRHSEQDMTAMAVQGIKAITDILGDKPYLMGNNPCGADATLFAFAASLLSPVFETPIRAAAESHPNLIAYMARMRTRYYPDFQGSGVFAPASAATAGRPEAAFGQQLEHHHHHH | soluble
10 | MITLYGFGTGFGLPEISPFVTKTEVQLKMAGLPYRKERAMPPASPKGQLPFIDDGGEAVADSTFIRAHIERRYGFDFDAGLSLQERAQAWAFERMIEHHVYWALVGARWVDPINFAKGPSHFFDGAPEHNREKLREDAQFRVAENYLLSGLGRHAPDDDVDLAVRSLFALSVQLGDKAYLMGNKPCGVDATAFGALAGILTPFFESGLRQRAEGFPNLTAYVDRMMDNYYPEFAWTPLRQAALEHHHHHH | not soluble
11 | MITMKDIIKEGHPTLRKVAEPVPLPPSEEDKRILQSLLDYVKMSQDPELAAKYGLRPGIGLAAPQINVSKRMIAVHVTDENGTLYSYALFNPKIVSHSVQQCYLTTGEGCLSVDRDVPGYVLRYARITVTGTTLDGEEVTLRLKGLPAIVFQHEIDHLNGIMFYDRINPADPFQVPDGAIPIGR | soluble
12 | MITNDHDRRKQISVRGIAQVENVSNIKKAFNRHLHFSIIKDRNVATDRDYYFALANTVRDHLVSRWIRTQQHYYDKDPKRVYYLSLEFYMGRTLSNTMMNLGIQATVDEALYQLGLDIEELQEIEEDAGLGNGGLGRLAACFLDSMATLGIPAYGYGLRYEYGIFKQLIRDGWQIEEPDDWLRFGNPWEKARPEYMLPVNFYGKVVKEDGKSKWIDTQVVFAMPYDTPVPGYKNNIVNTLRLWSAKAENHFHLKFFNDGDYVQAVMDRNLSENITRVLYPNDNMFLGKELRLKQQYFLVAATLQDIIRRFKSSIYGNREAVRVNFETFPDKVAIQLNDTHPSIGIPELIRLLIDVEGLTWDQAWDICIKTYAYTNHTLLPEALERWPVSLMQNLLPRHLEIIYEINQKFMNTISQRFPGDFDRMRRMSIVEEADQFGEKRINMAHLCIVASHAINGVAALHSDLLKSSTFRDFYEFYPDRFQNKTNGITPRRWLLLSNPSLADLIVEKIGESWITNLDELQKLKEYANDAGFLDSIRRVKLENKQQVAQYLSDEYNVNVNAASLFDVHVKRIHEYKRQLLNILHVIALYNRIKENPNIDMVKRTVLYGGKAAPGYHMAKQIIRLITAVAEQVNNDAIVGDRLKVIFLENYRVSMAEKIIPASDLSEQISTAGTEASGTGNMKFMLNGALTIGTLDGANVEMAEEMGDENIFIFGMNVEEVEALTKRGYSSQEFIDKSPMLKQIIEQIEGGMFTPEDPDQLKDLSNMLRYHDRFMVCADFDAFIEAQDKVSATFRDQEKWSRMALYNIASTGKFSTDRTITEYAREIWGIDQFESSLPAPYENEKSE | not soluble
13 | MITPKGTHDAVAKFQKTDLHQDLDYIVLQQRRTQLETLINERESFVKNLCSLFHKIQNTKNYQEFVDVLAENRDLLREIFTVENGFQKQKWISNDDIPQIDWDKFALDINAYIAENDQLLALYEDGLL | not soluble
14 | MITQNIESLNNIAKIQHAANTDYLTDLANRRAFFRSAESRIKEYINKKVPYCLAMIDVDFFKKVNDTYGHDSGDQVLKVIALYMRKHFGAGLTARLGGEEFAVLLHGLDADYLHNKLDDFRREIAVSSIPAGDTSISITLSLGVVFDSEDELSKQMNEADNALYAAKENGRNQIVVFGAELDDLEHHHHHH | soluble
15 | MITSECIIYLARKYQCKFILLGRSAILATEPEWSIGCVDESELKKRIMQHLIEQQEKPTPIKVQNLYKKICQSREIYQTLADIKQGGGEAEYLSIDVTDTSALKSALAPVVARLGRITGIIHGAGNLADKLIEHKTEQDFQTVYNVKIEGLHSLINCVDIAQLKFIALFSSFVSFYGNVGQSDYSLANEILNKYAYLLQRKYPECHVVSFGWGPWDGGMVTPQLKQLFTQKNIKLIPLRVGAEILAEELTQDHTKVPQLIIMSQGISVLPKAFSPEKHSYRLYRRLTLQGNPFVYDHVIGGNAVLPAVCALAWMTNICEQFYPGYHFLSCQKYKVLKGIVFDDNLANLYCLDLTEVEKSEEEIQLEALIWSETPKGIPLYHYRALINISQKSHAQQALTFEDFNYYESSLSLNPYQEGILFHHQRFRGIQKILEITANKLIASCFLPEISPAEQGQFLTQSFNPYTADMFFQCLLIWVRQTYGLGSLPLELTALKQFYTLPFNQEFLINLSIEEQSETKVVASAIAHDIQGKVYLEATNMQVTSSARLNQLFLNNTVASKNTVCMLEHHHHHH | not soluble

Source: the DeepSol protein solubility set
